Target: poly-GA dipeptide repeat protein (human)
Assay: MSD sandwich ELISA on neuron lysate, C9-patient vs KO line

ratio of signal from the C9-patient vs KO line: 2
Substance: anti-GA antibody (MABN889, Millipore)
